Laboratory results from US20140079638A1 (RAMOT AT TEL AVIV UNIVERSITY, published 2014).
No end group written: not given here.

B1: PGA-Paclitaxel-E-[c(RGDfk)2] conjugate (SEQ ID NO:18) having a 2.6 mol % PTX and 5 mol % E-[c(RGDfk)2] loading (peptide)
peptide: RGDFKERGDFK
modifications: not fully specified (residues 4, 5, 10, 11, bridges); also: two cyclic RGDfk rings joined through Glu spacer, paclitaxel ester-linked to PGA, 2.6 mol %
B2: PGA-Paclitaxel-E-[c(RGDfk)2] conjugate (SEQ ID NO:18) having a 5.5 mol % PTX and 3.9 mol % E-[c(RGDfk)2] loading (peptide)
peptide: RGDFKERGDFK
modifications: not fully specified (residues 4, 5, 10, 11, bridges); also: two cyclic RGDfk rings joined through Glu spacer, paclitaxel ester-linked to PGA, 5.5 mol %

Target: αvβ3 integrin receptor on human umbilical vein endothelial cells (HUVEC) (human, UniProt P06756 31-1048; P05106 27-788)
Sequence (P06756 31-1048, chain 1 of 2): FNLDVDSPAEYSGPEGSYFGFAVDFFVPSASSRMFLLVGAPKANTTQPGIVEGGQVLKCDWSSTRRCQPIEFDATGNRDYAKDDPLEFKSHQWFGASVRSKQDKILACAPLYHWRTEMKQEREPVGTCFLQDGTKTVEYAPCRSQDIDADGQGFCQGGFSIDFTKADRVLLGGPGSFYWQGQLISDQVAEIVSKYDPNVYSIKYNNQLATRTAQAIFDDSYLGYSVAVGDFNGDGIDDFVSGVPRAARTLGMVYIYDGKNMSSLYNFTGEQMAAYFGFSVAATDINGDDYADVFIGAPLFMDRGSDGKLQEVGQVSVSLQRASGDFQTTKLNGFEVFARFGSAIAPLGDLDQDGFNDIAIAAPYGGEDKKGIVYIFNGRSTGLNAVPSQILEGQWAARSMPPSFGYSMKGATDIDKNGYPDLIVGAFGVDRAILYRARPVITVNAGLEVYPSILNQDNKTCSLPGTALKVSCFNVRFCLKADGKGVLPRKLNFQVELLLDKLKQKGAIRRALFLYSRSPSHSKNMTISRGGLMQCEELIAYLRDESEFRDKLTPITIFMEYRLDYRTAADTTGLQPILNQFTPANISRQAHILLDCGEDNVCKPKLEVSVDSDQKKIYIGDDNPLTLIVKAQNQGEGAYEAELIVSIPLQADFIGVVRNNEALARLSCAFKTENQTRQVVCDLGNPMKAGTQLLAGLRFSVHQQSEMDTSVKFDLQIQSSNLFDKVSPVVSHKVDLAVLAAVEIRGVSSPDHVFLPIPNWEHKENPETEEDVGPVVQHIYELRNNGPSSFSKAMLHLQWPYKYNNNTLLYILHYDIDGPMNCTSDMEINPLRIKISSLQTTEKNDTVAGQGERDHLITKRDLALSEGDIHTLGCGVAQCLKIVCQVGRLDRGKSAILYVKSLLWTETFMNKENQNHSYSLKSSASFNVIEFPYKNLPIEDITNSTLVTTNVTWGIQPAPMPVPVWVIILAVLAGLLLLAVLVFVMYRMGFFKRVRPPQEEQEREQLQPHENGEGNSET
Sequence (P05106 27-788, chain 2 of 2): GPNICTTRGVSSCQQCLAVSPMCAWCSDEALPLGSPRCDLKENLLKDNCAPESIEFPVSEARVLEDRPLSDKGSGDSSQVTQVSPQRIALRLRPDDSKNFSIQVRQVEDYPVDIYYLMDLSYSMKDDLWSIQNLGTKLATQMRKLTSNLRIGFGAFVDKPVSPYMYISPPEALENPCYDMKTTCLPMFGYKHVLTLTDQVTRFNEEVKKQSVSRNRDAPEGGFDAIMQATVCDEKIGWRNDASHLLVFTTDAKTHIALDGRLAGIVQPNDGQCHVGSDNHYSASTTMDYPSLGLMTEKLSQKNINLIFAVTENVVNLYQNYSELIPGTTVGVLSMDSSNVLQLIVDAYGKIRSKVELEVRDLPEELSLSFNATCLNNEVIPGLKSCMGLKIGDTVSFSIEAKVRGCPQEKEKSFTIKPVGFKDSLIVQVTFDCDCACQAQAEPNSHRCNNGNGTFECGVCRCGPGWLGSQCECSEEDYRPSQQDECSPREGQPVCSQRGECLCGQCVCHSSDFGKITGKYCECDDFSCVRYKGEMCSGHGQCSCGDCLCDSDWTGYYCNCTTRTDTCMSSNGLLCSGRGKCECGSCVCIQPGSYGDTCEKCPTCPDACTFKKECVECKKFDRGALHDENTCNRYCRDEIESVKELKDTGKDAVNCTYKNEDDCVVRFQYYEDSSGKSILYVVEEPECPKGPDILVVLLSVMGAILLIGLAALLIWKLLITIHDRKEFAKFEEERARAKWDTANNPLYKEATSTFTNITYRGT
Assay: cell-based or functional assay

Binder | inhibition of HUVEC adhesion to fibrinogen
B1 | ~60%
B2 | ~60%
